Test results: patent publication US20230372448A1, “THERAPEUTIC USE OF LONG-ACTING CONJUGATE OF TRIPLE AGONIST ACTING ON ALL OF GLUCAGON, GLP-1 AND GIP RECEPTORS AGAINST MULTIPLE SCLEROSIS” (HANMI PHARM. CO. ,LTD., priority 2020, published 2023)
Positions of bridges follow the written chain, without caps; N, C: chain ends. Non-standard residues stand in square brackets, D forms with d. No end group written: not given here. *: point of attachment. Acetyl(2-(4-imidazolyl)) = O=C(Cc1c[nH]cn1)*; Aib = CC(C)(N)C(=O)O

Experiments:
Assay in all cases: cell-based or functional assay
human GLP-1 receptor = human GLP-1 receptor (human, UniProt P43220 24-463)
human GCG receptor = human GCG receptor (human, UniProt P47871 26-477)
human GCG receptor, sequence (P47871 26-477): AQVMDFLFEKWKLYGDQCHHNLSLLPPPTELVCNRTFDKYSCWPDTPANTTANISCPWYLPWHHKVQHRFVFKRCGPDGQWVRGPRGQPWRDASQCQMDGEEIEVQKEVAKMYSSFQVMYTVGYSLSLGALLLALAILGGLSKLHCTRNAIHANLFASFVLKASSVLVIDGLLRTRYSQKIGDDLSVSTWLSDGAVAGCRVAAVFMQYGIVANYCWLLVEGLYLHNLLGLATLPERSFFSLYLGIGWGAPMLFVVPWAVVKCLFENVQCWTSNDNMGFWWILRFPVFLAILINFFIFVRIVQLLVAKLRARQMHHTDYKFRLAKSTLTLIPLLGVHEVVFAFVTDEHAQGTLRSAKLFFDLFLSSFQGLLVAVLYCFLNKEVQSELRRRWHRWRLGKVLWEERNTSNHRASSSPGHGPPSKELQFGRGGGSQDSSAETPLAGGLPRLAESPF

human GIP receptor = target: T1, human GIP receptor (human, UniProt P48546 22-466)
T1 sequence (looked up): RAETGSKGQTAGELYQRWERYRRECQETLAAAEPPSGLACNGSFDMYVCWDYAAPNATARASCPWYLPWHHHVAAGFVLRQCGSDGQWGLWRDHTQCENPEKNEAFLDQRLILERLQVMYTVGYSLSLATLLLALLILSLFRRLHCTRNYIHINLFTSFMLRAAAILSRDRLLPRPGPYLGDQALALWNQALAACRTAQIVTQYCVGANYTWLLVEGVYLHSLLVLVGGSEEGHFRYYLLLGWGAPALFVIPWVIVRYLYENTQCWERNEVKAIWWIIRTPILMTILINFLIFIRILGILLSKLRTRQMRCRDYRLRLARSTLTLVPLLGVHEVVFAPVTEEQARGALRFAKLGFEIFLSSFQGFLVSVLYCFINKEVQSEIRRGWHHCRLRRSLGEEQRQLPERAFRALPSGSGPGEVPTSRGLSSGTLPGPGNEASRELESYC

For Y[Aib]QGTFTSDYSKALDEKAAKDFVNWLLDHHPSSGQPPPSC (bridge 16-20; not fully specified) [triple agonist of SEQ ID NO: 99], the “In vitro activity (%) compared with native peptide: vs GLP-1” value (“In vitro activity (%) … vs GLP-1” below) (human GLP-1 receptor) was 20.9%, the “In vitro activity (%) compared with native peptide: vs Glucagon” value (“In vitro activity (%) … vs Glucagon” below) (human GCG receptor) was 14.9% and the “In vitro activity (%) compared with native peptide: vs GIP” value (shortened to “In vitro activity (%) … vs GIP”) (human GIP receptor) was 57.7%.

{Acetyl(2-(4-imidazolyl))}-[Aib]QGTFTSDYSIAMDEIHQKDFVNWLLAQC (bridge 15-19; not fully specified) [triple agonist of SEQ ID NO: 85] was tested, and the “In vitro activity (%) … vs GLP-1” value (human GLP-1 receptor) was 4.3%, the “In vitro activity (%) … vs Glucagon” value (human GCG receptor) was less than 0.1% and the “In vitro activity (%) … vs GIP” value (human GIP receptor) was 0.3%.

For {Acetyl(2-(4-imidazolyl))}-[Aib]QGTFTSDYSKYLDEKRQKEFVQWLLDTC (bridge 15-19; not fully specified) [triple agonist of SEQ ID NO: 82], the “In vitro activity (%) … vs GLP-1” value (human GLP-1 receptor) was 9.5%, the “In vitro activity (%) … vs Glucagon” value (human GCG receptor) was 1.1% and the “In vitro activity (%) … vs GIP” value (human GIP receptor) was less than 0.1%.

For {Acetyl(2-(4-imidazolyl))}-[Aib]QGTFTSDYSIAMDEIHQKDFVNWLLNTKC (bridge 15-19; not fully specified) [triple agonist of SEQ ID NO: 94], the “In vitro activity (%) … vs GLP-1” value (human GLP-1 receptor) was 0.5%, the “In vitro activity (%) … vs Glucagon” value (human GCG receptor) was less than 0.1% and the “In vitro activity (%) … vs GIP” value (human GIP receptor) was less than 0.1%.

For H[Aib]QGTFTSDVSKYLDGQAAQEFVAWLLAGGGPSSGAPPPSC (not fully specified) [triple agonist of SEQ ID NO: 10], the “In vitro activity (%) … vs GLP-1” value (human GLP-1 receptor) was 46%, the “In vitro activity (%) … vs Glucagon” value (human GCG receptor) was less than 0.1% and the “In vitro activity (%) … vs GIP” value (human GIP receptor) was less than 0.1%.

In the case of H[Aib]EGTFTSDYSIAMDEIHQKDFVDWLLAEKC (bridge 16-20; not fully specified) [triple agonist of SEQ ID NO: 80], the “In vitro activity (%) … vs GLP-1” value (human GLP-1 receptor) is reported as 8.1%, the “In vitro activity (%) … vs Glucagon” value (human GCG receptor) is reported as 0% and the “In vitro activity (%) … vs GIP” value (human GIP receptor) is reported as 0.1%.

For Y[Aib]QGTFTSDYSKALDEKAAKEFVQWLLDQHPSSGQPPPSC (bridge 16-20) [triple agonist of SEQ ID NO: 100], the “In vitro activity (%) … vs GLP-1” value (human GLP-1 receptor) was 42.2%, the “In vitro activity (%) … vs Glucagon” value (human GCG receptor) was 12.7% and the “In vitro activity (%) … vs GIP” value (human GIP receptor) was 118%.

In the case of {Acetyl(2-(4-imidazolyl))}-[Aib]EGTFTSDYSIAMDEIHQKDFVDWLLAEC (bridge 15-19; not fully specified) [triple agonist of SEQ ID NO: 84], the “In vitro activity (%) … vs GLP-1” value (human GLP-1 receptor) is reported as 4.2%, the “In vitro activity (%) … vs Glucagon” value (human GCG receptor) is reported as less than 0.1% and the “In vitro activity (%) … vs GIP” value (human GIP receptor) is reported as less than 0.1%.

In the case of Y[Aib]QGTFTSDYSKYLDEKRAKEFVQWLLDCHPSSGQPPPS (bridge 16-20; not fully specified) [triple agonist of SEQ ID NO: 97], the “In vitro activity (%) … vs GLP-1” value (human GLP-1 receptor) is reported as 10.5%, the “In vitro activity (%) … vs Glucagon” value (human GCG receptor) is reported as 62.8% and the “In vitro activity (%) … vs GIP” value (human GIP receptor) is reported as 2.6%.

{Acetyl(2-(4-imidazolyl))}-[Aib]QGTFTSDYSIAMDEIHQKDFVNWLLAQKC (bridge 15-19; not fully specified) [triple agonist of SEQ ID NO: 92] was tested, and the “In vitro activity (%) … vs GLP-1” value (human GLP-1 receptor) was 0.8%, the “In vitro activity (%) … vs Glucagon” value (human GCG receptor) was less than 0.1% and the “In vitro activity (%) … vs GIP” value (human GIP receptor) was 0.4%.

With Y[Aib]QGTFTSDYSKALDEKAAKEFVNWLLDQHPSSGQPPPSC (bridge 16-20) [triple agonist of SEQ ID NO: 101] the “In vitro activity (%) … vs GLP-1” value (human GLP-1 receptor) was 23.2%, the “In vitro activity (%) … vs Glucagon” value (human GCG receptor) was 13.9% and the “In vitro activity (%) … vs GIP” value (human GIP receptor) was 40.1%.

With {Acetyl(2-(4-imidazolyl))}-[Aib]QGTFTSDYSKYLDEKRQKEFVNWLLAQC (bridge 15-19; not fully specified) [triple agonist of SEQ ID NO: 86] the “In vitro activity (%) … vs GLP-1” value (human GLP-1 receptor) was 28.4%, the “In vitro activity (%) … vs Glucagon” value (human GCG receptor) was 0.4% and the “In vitro activity (%) … vs GIP” value (human GIP receptor) was 0.2%.

In the case of Y[Aib]QGTFTSDYSKYLDEKRAKEFVQWLLDHCPSSGQPPPS (bridge 16-20; not fully specified) [triple agonist of SEQ ID NO: 96], the “In vitro activity (%) … vs GLP-1” value (human GLP-1 receptor) is reported as 34.4%, the “In vitro activity (%) … vs Glucagon” value (human GCG receptor) is reported as 195% and the “In vitro activity (%) … vs GIP” value (human GIP receptor) is reported as 5.2%.

With {Acetyl(2-(4-imidazolyl))}-[Aib]EGTFTSDYSIAMDEIHQKDFVDWLLAEKC (bridge 15-19; not fully specified) [triple agonist of SEQ ID NO: 91] the “In vitro activity (%) … vs GLP-1” value (human GLP-1 receptor) was 31.9%, the “In vitro activity (%) … vs Glucagon” value (human GCG receptor) was 16.8% and the “In vitro activity (%) … vs GIP” value (human GIP receptor) was 0.3%.

With {Acetyl(2-(4-imidazolyl))}-[Aib]EGTFTSDYSIAMDEIHQKDFVNWLLAQKC (bridge 15-19; not fully specified) [triple agonist of SEQ ID NO: 90] the “In vitro activity (%) … vs GLP-1” value (human GLP-1 receptor) was 7.4%, the “In vitro activity (%) … vs Glucagon” value (human GCG receptor) was less than 0.1% and the “In vitro activity (%) … vs GIP” value (human GIP receptor) was less than 0.1%.

For {Acetyl(2-(4-imidazolyl))}-[Aib]QGTFTSDYSKYLDEKRQKEFVQWLLNTKC (bridge 15-19; not fully specified) [triple agonist of SEQ ID NO: 88], the “In vitro activity (%) … vs GLP-1” value (human GLP-1 receptor) was 9.6%, the “In vitro activity (%) … vs Glucagon” value (human GCG receptor) was 0.3% and the “In vitro activity (%) … vs GIP” value (human GIP receptor) was less than 0.1%.

In the case of {Acetyl(2-(4-imidazolyl))}-[Aib]QGTFTSDYSKYLDEKRQKEFVNWLLAQKC (bridge 15-19; not fully specified) [triple agonist of SEQ ID NO: 93], the “In vitro activity (%) … vs GLP-1” value (human GLP-1 receptor) is reported as 5.7%, the “In vitro activity (%) … vs Glucagon” value (human GCG receptor) is reported as 0.3% and the “In vitro activity (%) … vs GIP” value (human GIP receptor) is reported as 0.7%.

{Acetyl(2-(4-imidazolyl))}-[Aib]QGTFTSDYSKYLDEKRQKEFVQWLLDTKC (bridge 15-19; not fully specified) [triple agonist of SEQ ID NO: 89] was tested, and the “In vitro activity (%) … vs GLP-1” value (human GLP-1 receptor) was 7.1%, the “In vitro activity (%) … vs Glucagon” value (human GCG receptor) was 0.7% and the “In vitro activity (%) … vs GIP” value (human GIP receptor) was less than 0.1%.

In the case of {Acetyl(2-(4-imidazolyl))}-[Aib]QGTFTSDYSIAMDEIHQKDFVNWLLNTC (bridge 15-19; not fully specified) [triple agonist of SEQ ID NO: 87], the “In vitro activity (%) … vs GLP-1” value (human GLP-1 receptor) is reported as 0.9%, the “In vitro activity (%) … vs Glucagon” value (human GCG receptor) is reported as less than 0.1% and the “In vitro activity (%) … vs GIP” value (human GIP receptor) is reported as less than 0.1%.

For {Acetyl(2-(4-imidazolyl))}-[Aib]QGTFTSDYSKYLDEKRQKEFVQWLLNTC (bridge 15-19; not fully specified) [triple agonist of SEQ ID NO: 81], the “In vitro activity (%) … vs GLP-1” value (human GLP-1 receptor) was 7.8%, the “In vitro activity (%) … vs Glucagon” value (human GCG receptor) was 0.3% and the “In vitro activity (%) … vs GIP” value (human GIP receptor) was less than 0.1%.

Y[Aib]QGTFTSDYSKYLDEKRAKEFVQWLLCHHPSSGQPPPS (bridge 16-20; not fully specified) [triple agonist of SEQ ID NO: 95] was tested, and the “In vitro activity (%) … vs GLP-1” value (human GLP-1 receptor) was 2.1%, the “In vitro activity (%) … vs Glucagon” value (human GCG receptor) was 0.4% and the “In vitro activity (%) … vs GIP” value (human GIP receptor) was less than 0.1%.

For Y[Aib]QGTFTSDYSKALDEKAAKEFVNWLLDHHPSSGQPPPSC (bridge 16-20; not fully specified) [triple agonist of SEQ ID NO: 98], the “In vitro activity (%) … vs GLP-1” value (human GLP-1 receptor) was 28.1%, the “In vitro activity (%) … vs Glucagon” value (human GCG receptor) was 8.2% and the “In vitro activity (%) … vs GIP” value (human GIP receptor) was 47.1%.

With H[Aib]QGTFTSDVSKYLDGQAAQEFVAWLLAGC (not fully specified) [triple agonist of SEQ ID NO: 9] the “In vitro activity (%) … vs GLP-1” value (human GLP-1 receptor) was 32.1%, the “In vitro activity (%) … vs Glucagon” value (human GCG receptor) was 0.13% and the “In vitro activity (%) … vs GIP” value (human GIP receptor) was less than 0.1%.
